Changes are numbered by the printed parent chain.
B1: SEQ9 aptamer (ssRNA)
RNA: GGGAAGCCUGUGGAGCUGCUCCACAAGGAUGAAAAAAACCCAAAUAAUAUAUUUAAUCAGCAUUGUCACCAACAACUGG
modifications: 2'-F all pyrimidines
B2: SEQ6 aptamer (ssRNA)
RNA: GGGAAGCCUGUGGAGCUGCAGGAUGAAAAAAACCCAAAAUUAAAUAAAAAAUAGACGGUGCAUUGUCACCAACAACUGG
modifications: 2'-F all pyrimidines
B3: SEQ7 aptamer (ssRNA)
RNA: B2 RNA with A43G
modifications: 2'-F all pyrimidines
B4: SEQ1 aptamer (ssRNA)
RNA: GGGAAGCCUGUGGAGCUGCAGGAUGAAAAAAACCCAAAAACAAAGACAAUGAUUGAGUAGCAUUGUCACCAACAACUGG
modifications: 2'-F all pyrimidines
B5: SEQ8 aptamer (ssRNA)
RNA: GGGAAGCCUGUGGAGCUGCGGAUAAAAAUAGAGUUUGAUAAACACCUGUAUUAAAACCGCAUUGUCACCAACAACUGG
modifications: 2'-F all pyrimidines
B6: SEQ4 aptamer (ssRNA)
RNA: GGGAAGCCUGUGGAGCUGCAGGAUGAAAAAAACCCAAAUAUGACAAAUAAAACGGCAACGCAUUGUCACCAACAACUGG
modifications: 2'-F all pyrimidines
B7: SEQ12 aptamer (ssRNA)
RNA: GGGAAGCCUGUGGAGCUGCGAAACAGUGAAACAAACCACAGACUGAGAAAGCAGUAACAGCAUUGUCACCAACAACUGG
modifications: 2'-F all pyrimidines
B8: SEQ3 aptamer (ssRNA)
RNA: GGGAAGCCUGUGGAGCUGCAGGAUGAAAAAAACCCAAAAUAAGUAGAAAUGACAGAAUGGCAUUGUCACCAACAACUGG
modifications: 2'-F all pyrimidines
B9: SEQ5 aptamer (ssRNA)
RNA: GGGAAGCCUGUGGAGCUGCUUAAACAAGCAAGUGAAAAAAACCACAGCAAAUGUAAAAAGCAUUGUCACCAACAACUGG
modifications: 2'-F all pyrimidines
B10: SEQ84 aptamer (ssRNA)
RNA: GGGAGAACUUCGACCAGAAGUGAAAGAAACUCCCGAUGAAAGAUGUAACAAACCAUAUGUGCGCAUACAUGGAUCCUC
modifications: 2'-F all pyrimidines
B11: SEQ61 aptamer (ssRNA)
RNA: GGGAGAACUUCGACCAGAAGGUCGUAACGAAUAAAACUCCUGCACAAAAAUAUGUGCGCAUACAUGGAUCCUCA
modifications: 2'-F all pyrimidines
B12: SEQ65 aptamer (ssRNA)
RNA: GGGAGAACUUCGACCAGAAGUGUGAAAAAAACCCAAAUCGAGCACAAAAUUAUGUGCGCAUACAUGGAUCCUCA
modifications: 2'-F all pyrimidines

Biological target: T1, beta-NGF (nerve growth factor) (Homo sapiens, UniProt P01138 P01138:122-241)
Experiment: SPR; blocks NGF-TrkA and NGF-P75; PC-12 neurite inhibition + (Table 2)
Settings: tags: R&D Systems; chain copies: 2
Experimental: (§1) As directed in BIAcore Company's protocol, Protein A (21181, PIERCE) was immobilized on a CM5 sensor chip. About 1100 RU of human Trk A-Fc fused with the Fc portion of IgG (175-TK, R&D systems) was immobilized thereon. As the analyte, a mixture of NGF (0.1 μM) and each aptamer (0.33 μM) was injected after being allowed to stand for 30 minutes. […] When NGF binds stronger to a receptor than an aptamer, the aptamer may be removed and NGF may bind to the receptor. […] Using the binding amount of NGF and NGF receptor without an aptamer as 100, the binding amount of NGF and NGF receptor added with an aptamer was determined as a correction value. Here, the binding amount is the RU value at the peak top of the sensorgram of BIAcore (RU value immediately after completion of NGF injection). […] A similar experiment was performed for another receptor P75 (p75-Fc; R&D systems).

T1 sequence (P01138 122-241, one chain of several): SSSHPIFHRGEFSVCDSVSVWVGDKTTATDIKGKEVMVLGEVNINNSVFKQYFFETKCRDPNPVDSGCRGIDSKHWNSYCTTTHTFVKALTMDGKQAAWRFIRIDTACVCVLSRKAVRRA

Row | Binder | activity
1 | B1 | ≥ 60 % inhibition
2 | B2 | ≥ 60 % inhibition
3 | B3 | ≥ 60 % inhibition
4 | B4 | ≥ 60 % inhibition
5 | UGUGGAGCUGCUUAAACAAGCAAGUGAAAAAAACCACA (ssRNA, 2'-F all pyrimidines) [SEQ32 aptamer] | ≥ 60 % inhibition
6 | B5 | ≥ 60 % inhibition
7 | B6 | ≥ 60 % inhibition
8 | B7 | ≥ 60 % inhibition
9 | GGGAUAAAAAUAGAGUUUGAUAAACACCUGUAUUAAAACCC (ssRNA, 2'-F all pyrimidines) [SEQ30 aptamer] | ≥ 60 % inhibition
10 | B8 | ≥ 60 % inhibition
11 | B9 | ≥ 60 % inhibition

Biological target: T1, beta-NGF (nerve growth factor)
Experiment: SPR; blocks NGF-TrkA and NGF-P75
Settings: tags: R&D Systems; chain copies: 2
Experimental: as §1

Row | Binder | activity
12 | B10 | ≥ 60 % inhibition
13 | B11 | ≥ 60 % inhibition
14 | B12 | ≥ 60 % inhibition

Biological target: T1, beta-NGF (nerve growth factor)
Experiment: SPR; NGF-TrkA and NGF-P75; no PC-12 inhibition
Settings: tags: R&D Systems human NGF; chain copies: 2
Experimental: as §1

Row | Binder | activity
15 | UGUGGAGCUGCUAAACAGCAAGUGAAAAAAACCACA (ssRNA, 2'-F pyrimidines) [SEQ33 aptamer] | ≥ 60 % inhibition
16 | GGGAAGCCGUGGAGCUGCGGAUGAAAAAAACCC (ssRNA, 2'-F pyrimidines) [SEQ88 aptamer] | ≥ 60 % inhibition
17 | GGGAGCUGCUUAAACAAGCAAGUGAAAAAAACCC (ssRNA, 2'-F pyrimidines) [SEQ31 aptamer] | ≥ 60 % inhibition
18 | GGGAAGCCUGUGGAGCUGCAGGAUGAAAAAAACCC (ssRNA, 2'-F pyrimidines) [SEQ36 aptamer] | ≥ 60 % inhibition
19 | GUGGAGCUGUUAAACAACAAGUGAAAAAAACCAC (ssRNA, 2'-F pyrimidines) [SEQ34 aptamer] | ≥ 60 % inhibition

Biological target: T1, beta-NGF (nerve growth factor)
Experiment: cell_activity; neurite outgrowth, Neuroscreen-1 cells
Settings: tags: R&D Systems; chain copies: 2
Experimental: The neurite outgrowth inhibitory activity of aptamer was evaluated by using Neuroscreen-1 cell, which is a subclone of PC-12 cells. 2500 Cells per well were cultured for one day in an RPMI-1640 medium containing 2.5% horse serum and 1.25% fetal bovine serum in a 96 well flat-bottom plate coated with collagen type IV. A mixed solution of NGF (final concentration 15 ng/ml or 1.1 nM) prereacted in a serum-free RPMI-1640 medium at room temperature or 37° C. for 30 min to 1 hr and an aptamer (final concentration 500-3 nM) was added. Two or three days later, the cytoplasm and nuclei were stained using Cellomics Neurite Outgrowth Kits (manufactured by Thermo Scientific), and neurite length per cell was measured by Cellomics ArrayScan VTI (manufactured by Thermo Scientific). With the neurite length per cell obtained by culturing the cell for 2 days with the addition of NGF alone as inhibitory activity 0%, and that of the cell obtained by NGF free culture as inhibitory activity 100%, the inhibitory activity of the aptamer was calculated from the neurite length per cell obtained by culturing with the addition of NGF and the aptamer in mixture. […] When the inhibitory activity was 0% or below, ‘0%’ is indicated. When it was not less than 100%, ‘100%’ is indicated. The 50% inhibitory concentration was determined from the concentrations at two, above and below points sandwiching the 50% inhibitory activity.

Row | Binder | IC50
20 | B10 | 14.6 nM
21 | B11 | 20.7 nM
22 | B12 | 22.2 nM
